Legend:
[1] = target: LC8 dynein light chain (DYNLL2), full-length, His6-tagged (UniProt Q96FJ2); test: SPR; ProteOn XPR36, HTG chip; His6-LC8 immobilised on Ni2+-NTA at three densities (1200, 900, 600 RU); peptides injected at five concentrations, 60 ul/min, 400 s, dissociation 600 s; 20 mM Hepes, 150 mM NaCl, 0.05% Tween-20, 0.1 mM TCEP, 50 uM EDTA, pH 7.5; 1:1 Langmuir global fit; Kd is the mean of the kinetic and the equilibrium analysis, SD from three individual Kd values
[2] = target: LC8 dynein light chain (DYNLL2), full-length, His6-tagged (UniProt Q96FJ2); test: SPR; ProteOn XPR36, HTG chip; His6-LC8 immobilised on Ni2+-NTA surface at three densities (1200, 900, 600 RU); peptides injected at five concentrations, 60 ul/min; 20 mM Hepes, 150 mM NaCl, 0.05% Tween-20, 0.1 mM TCEP, 50 uM EDTA, pH 7.5; 1:1 Langmuir model; Kd is the mean of the kinetic and the equilibrium analysis; apparent

Chain of LC8 dynein light chain (DYNLL2), full-length, His6-tagged (Q96FJ2 whole entry): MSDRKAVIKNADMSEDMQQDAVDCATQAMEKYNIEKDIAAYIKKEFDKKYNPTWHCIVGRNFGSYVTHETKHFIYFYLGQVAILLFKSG

Substance	Kd [1] [µM]	Kd [2] [µM]
MPHOSPH9 LC8 binding motif peptide (start 909)	1.2	–
MPHOSPH9 LC8 binding motif peptide (motif start 909)	–	1.2

— paper PMC5746249
